In PMC10920689:

Key:
[1] = target: truncated soluble human FcRn of the FcRn binding ELISAs (hFcRn-GST or biotinylated human FcRn; the form is not told for the panel) (UniProt P55899)
[2] = target: truncated soluble biotinylated mouse FcRn lacking the transmembrane domain (mouse | not stated) (UniProt Q61559)
[3] = target: human FcRn coupled to the FcRn retention column (UniProt P55899); assay: analytical FcRn affinity chromatography; 100 μg NIP IgG1 variant injected over a human FcRn retention column at pH 6.0, eluted by a pH gradient 6.0 to 8.8 over 110 min (20 mM MES, 140 mM NaCl pH 6.0; 20 mM Tris/HCl, 140 NaCl pH 8.8)
[4] = target: truncated soluble human FcRn of the FcRn binding ELISAs (hFcRn-GST or biotinylated human FcRn; the form is not told for the panel) (UniProt P55899); remark: listed apart in the source
[5] = target: anti-NIP IgG1 DHS (human); assay: SPR; IgG variants amine-coupled to CM5 chips (300 RU), serial dilutions of monomeric hFcRn-His injected; phosphate buffer pH 6.0, 25 °C, 50 µl/min; 1:1 Langmuir model
anti-NIP IgG1 KF (human) = assay: as above
anti-NIP IgG1 LS (human) = assay: as above
[6] = target: anti-NIP IgG1 Q311R/M428E/N434W (REW) (human); assay: as above
anti-NIP IgG1 WT (human) = assay: as above
[7] = target: anti-NIP IgG1 YTE (human); assay: as above
[8] = target: anti-NIP IgG1 YTE/KF (human); assay: as above
[9] = target: anti-NIP IgG2 REW (human); assay: as above
anti-NIP IgG2 WT (human) = assay: as above
[10] = target: anti-NIP IgG3 R435H/REW (human); assay: as above
anti-NIP IgG3 WT (human) = assay: as above
[11] = target: anti-NIP IgG4 REW (human); assay: as above
anti-NIP IgG4 WT (human) = assay: as above
[12] = target: recombinant etanercept WT; assay: as above
[13] = target: anti-NIP human IgG1 Q311R/M428E/N434W (REW) (human); assay: SPR; Biacore 3000; NIP IgG1 variants amine-coupled (300 RU) to CM5 chips; serial dilutions of monomeric hFcRn-His injected at pH 6.0 (phosphate), 50 μl/min, 25 °C; Langmuir 1:1 model

Sequence of UniProt Q61559 (Q61559 22-297, chain 1 of 2): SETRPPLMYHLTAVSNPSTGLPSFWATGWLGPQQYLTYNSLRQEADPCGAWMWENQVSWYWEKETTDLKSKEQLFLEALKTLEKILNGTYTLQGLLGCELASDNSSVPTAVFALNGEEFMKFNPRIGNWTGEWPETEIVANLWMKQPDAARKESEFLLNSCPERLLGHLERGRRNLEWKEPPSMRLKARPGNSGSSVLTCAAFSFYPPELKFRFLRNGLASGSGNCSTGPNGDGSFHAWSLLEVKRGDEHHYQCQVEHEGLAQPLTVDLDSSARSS
Sequence of UniProt Q61559 (P01887 21-119, chain 2 of 2, further chain): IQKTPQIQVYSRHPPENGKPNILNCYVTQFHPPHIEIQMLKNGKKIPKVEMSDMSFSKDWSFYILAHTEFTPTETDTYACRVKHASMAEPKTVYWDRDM

anti-NIP human IgG1 Q311R/M428E/N434W (REW) (antibody)
plasma half-life after i.v. injection (5 mg/kg) in human FcRn transgenic mice (Tg32) preloaded with IVIg [1]: 341 h | plasma half-life in conventional mice, against WT [2]: 2 fold | pH of elution from the FcRn column [3]: 7.58 pH

anti-NIP human IgG1 wild type (antibody)
plasma half-life after i.v. injection (5 mg/kg) in human FcRn transgenic mice (Tg32) preloaded with IVIg [1]: 187 h | pH of elution from the FcRn column [3]: 6.95 pH

anti-NIP human IgG2 Q311R/M428E/N434W (REW) (antibody)
plasma half-life in Tg32 mice preloaded with IVIg [4]: 276 h

anti-NIP human IgG2 wild type (antibody)
plasma half-life in Tg32 mice preloaded with IVIg [4]: 202 h

truncated soluble His6x tagged human FcRn lacking the transmembrane domain (hFcRn-His) (from UniProt P55899 24-297; P61769 21-119) (receptor)
Kd [5]: 40.3 nM | koff [5]: 0.0304 s⁻¹ | kon [5]: 756000 M⁻¹ s⁻¹ | Kd (anti-NIP IgG1 KF (human)): 15.9 nM | koff (anti-NIP IgG1 KF (human)): 0.0122 s⁻¹ | kon (anti-NIP IgG1 KF (human)): 770000 M⁻¹ s⁻¹ | Kd (anti-NIP IgG1 LS (human)): 13.7 nM | koff (anti-NIP IgG1 LS (human)): 0.0058 s⁻¹ | kon (anti-NIP IgG1 LS (human)): 422000 M⁻¹ s⁻¹ | Kd [6]: 8.39 nM | koff [6]: 0.0055 s⁻¹ | kon [6]: 653000 M⁻¹ s⁻¹ | Kd (anti-NIP IgG1 WT (human)): 171 nM | koff (anti-NIP IgG1 WT (human)): 0.0825 s⁻¹ | kon (anti-NIP IgG1 WT (human)): 483000 M⁻¹ s⁻¹ | Kd [7]: 28.2 nM | koff [7]: 0.0168 s⁻¹ | kon [7]: 594000 M⁻¹ s⁻¹ | Kd [8]: 3.44 nM | koff [8]: 0.003 s⁻¹ | kon [8]: 871000 M⁻¹ s⁻¹ | Kd [9]: 13.3 nM | koff [9]: 0.0075 s⁻¹ | kon [9]: 570000 M⁻¹ s⁻¹ | Kd (anti-NIP IgG2 WT (human)): 388 nM | koff (anti-NIP IgG2 WT (human)): 0.0536 s⁻¹ | kon (anti-NIP IgG2 WT (human)): 138000 M⁻¹ s⁻¹ | Kd [10]: 10.3 nM | koff [10]: 0.007 s⁻¹ | kon [10]: 674000 M⁻¹ s⁻¹ | Kd (anti-NIP IgG3 WT (human)): 525 nM | koff (anti-NIP IgG3 WT (human)): 0.177 s⁻¹ | kon (anti-NIP IgG3 WT (human)): 337000 M⁻¹ s⁻¹ | Kd [11]: 13.1 nM | koff [11]: 0.008 s⁻¹ | kon [11]: 606000 M⁻¹ s⁻¹ | Kd (anti-NIP IgG4 WT (human)): 1280 nM | koff (anti-NIP IgG4 WT (human)): 0.123 s⁻¹ | kon (anti-NIP IgG4 WT (human)): 95800 M⁻¹ s⁻¹ | Kd [12]: 346 nM | koff [12]: 0.12 s⁻¹ | kon [12]: 348000 M⁻¹ s⁻¹

truncated soluble His6x tagged human FcRn lacking the transmembrane domain (hFcRn-His), monomeric fraction (from UniProt P55899 24-297; P61769 21-119) (receptor)
fold lower KD than WT [13]: 20 fold
